Consider five molecules from US12077763B2, “RNA-based control of powdery mildew” (Greenlight Biosciences, Inc., priority 2021, dated 2024).

This data set relates to E. necator. Description: Leaf disc assay, dry inoculum (settling tower), decrease in disease severity / hyphal growth (Example 2). Particulars: decrease in disease severity (hyphal growth) relative to untreated control, value ± SE; for % decrease =/− SE TP1: time point 1 (untreated control hyphal growth ≥50%); for % decrease =/− SE TP2: time point 2.

B1: GS1819: dsRNA trigger SEQ ID NO 209; gene target Putative ATP-dependent RNA helicase PB1A10.06c (nucleic acid)
DNA: CTGGTGCCCTTAACTTGATGGTAAGATTATTCGGCAGAGTTTTTACCATTTGAATATTTGGTATTGATTTATATCCTTGAGCCTCATTTATTTGCTGGATAGCCCAAGCCTTAAACGCAGATCTTTCTTTTCTAGGCGTATTCTCAATTTCATCGCAATCATCAGAACTTTCATTCTCATCACGGCTACTTTCTTTACTGCTATCTGACTCGTAATCAGATAAATTTGGTCCAATTTTATCTCCAACGTCTTCTGAGGAATTTGTCATGTTTCCTATGGTATCACGCTGGATTGACATACTTGAATCTGAGTTTATACCTTCCCATTCTGATTCATCATCGGTGACAGGCTTGCGAATATCAAGAGAAAATTTAGATACAATGCCGCCTCGTCGTTTTCTTTTCCCCAGAATAGGAATTCCCTCCTTACTTATTTCGAGTGGCTTTTTTTAATCCAGCTCCCACAGTTATATCTGTTTGCTTCTGAGTAGTAAGTACTGAAGCTTTAGAGGTCTCATCGATATTATCGTCACATGGAGATATTCTCAGATCATCATTGGTTACAGTACTCTCATCGGAATTGAATTGATTTTCGTT
For B1, the “% decrease =/− SE TP1” value came to 12 ± 6% and the “% decrease =/− SE TP2” value is 8 ± 9%.

B2: GS1820: dsRNA trigger SEQ ID NO 164; gene target Mitochondrial carrier protein LEU5 (nucleic acid)
DNA: TTTTTTACAGCCTCTTTGGGAAATCTTATGGATTGAGGCGAAGGCGGAACTTCATTATATATGATTTTGCAAATGTGTGAAAAGCTTGAGCTCGCACCTTTCTTTGTTTCAAAAGCTAGCCGAACCCTTATGACTTCTAAGGGATATGTGAAGAAAACACTAGCGACGCCTGCTAAACTGCCACTTAACAATCTTCGTAATGATGTTTCTTGCGTAGGTGATGATATAAGAAATGATCGTATTTGCTCGTAGGTTAAAAACTTGATCGCAGCATAAGGAAATATCCGAATTATAGTGGCAGAATGGCCACGAAATAGACCACTAATTCCATCAGTAGCTTTGATTTGCCGTATAGCAGTCACAACGCCGAGCCAGCTCCCAGCGTATCTGGAAAATTGTGGATTAGAAGATTGGAATAATATCTTCACACGATCTAAAGGTGCCACTATAGTTTTTGCCGCACTCCCTGCTAGTCCTCCAGCTAATCCTGACCGCCATATGAATCCCAAAGATTGCTTTTCATGAGTTTGGGATTTTGATGAATCTTTTTTATTTTTCGTAGAAGGGTATACTGCAATATTACTTTCATATAAAT
On to B2, for which the “% decrease =/− SE TP1” value is 23 ± 4% and the “% decrease =/− SE TP2” value is 10 ± 6%.

B3: GS3939 (nucleic acid)
sense: AAGAUUGAAAAUGGAACGCCUAGAACAGCACCUUUAAUUACAACACGAAGGACUCCGAAAAUGCUACGAUCUACUGUGUCAAAUUCCUCGCUUUCCUCACAACCAUCAAUGUCACCGCAUCAAUUUAUUGCUCUUGCCCGGGAAGCAAUGAAAAAUGCUUUGGAAGAGAACAAAUCAAAGGCAGCUGAGGCCAAAAGUGUUAGUAAUGAACUUAAGCCAGGGGUUACGAUCGAUUUUAGCAACAAACAAAUCCAACGAUUUCCUGAUGAAGUAAUUGAUAUAAUAAAGAAUGAGCUUGAAAGACUUGCGCUGUCACAUAAUCAAAUAUCUGUGUUUCCCUCAAGGUUUUCCGAAUGCAAAUCACUCCGAUACCUCAAUGUUAGAGAUAAUGUUAU
antisense: AUAACAUUAUCUCUAACAUUGAGGUAUCGGAGUGAUUUGCAUUCGGAAAACCUUGAGGGAAACACAGAUAUUUGAUUAUGUGACAGCGCAAGUCUUUCAAGCUCAUUCUUUAUUAUAUCAAUUACUUCAUCAGGAAAUCGUUGGAUUUGUUUGUUGCUAAAAUCGAUCGUAACCCCUGGCUUAAGUUCAUUACUAACACUUUUGGCCUCAGCUGCCUUUGAUUUGUUCUCUUCCAAAGCAUUUUUCAUUGCUUCCCGGGCAAGAGCAAUAAAUUGAUGCGGUGACAUUGAUGGUUGUGAGGAAAGCGAGGAAUUUGACACAGUAGAUCGUAGCAUUUUCGGAGUCCUUCGUGUUGUAAUUAAAGGUGCUGUUCUAGGCGUUCCAUUUUCAAUCUU
For B3, the “% decrease =/− SE TP1” value is 4 ± 5%.

B4: GS1821: dsRNA trigger SEQ ID NO 131; gene target ABC transporter ATP-binding protein ARB1 (nucleic acid)
DNA: AACACCATTAGGCCCTACCAAAGCTGTTCGAGAGTCCATATCAACACCTAGATCCAAATGTCTGTATAAATCATCTTTAGGATCACCAGAGTATGAAAAAGTAACATCGTCAAATGATAACACTGGTGGAGGAAGTTTTTCCACGTCTGCAAATCTGAAAGTAAAGATACGGTCAGGCTCAACTTTTTGAATGAAGCCATCTGCTTCCATCTTGTCTAGTATTTTTTGTCGTGATTTAGCCTGTCTGACTAAGTTGGCATAAGTACCAGCAGATGCAATAAATTTTTTGATATGAGCGATTTCGTCTTGTTGCTTGTGATAAGCTTTCATTTGGTTGACTTCTAACTCAGAGCGGGTCTTTTGGTATGTATCATAATTTCCACCATAATATGTAAGTTGTTTTTGCCGCATATCAATCATATTGGTGCAGACTCCATTTAGAAAGTCCATTGAATGAGACACTAATACAAGACTTCGATCCCACTTCTTAAGATATTCTTCAAGCCACACACAAGCTTCCAAGTCTAAGTGCGCAGTCGGATCATCAAGTAGAAGTAAAGATGGCTTAACAAAAAGGGCTTTTGCTAAAGCTACA
On to B4, for which the “% decrease =/− SE TP1” value turned out to be 29 ± 5% and the “% decrease =/− SE TP2” value is 19 ± 6%.

B5: GS1822: dsRNA trigger SEQ ID NO 206; gene target Putative phospholipid-transporting ATPase C6C3.06c (nucleic acid)
DNA: TCTCTTCGCGACCGATATCCATTTCCTGAGGGTAACAGAGAATGATCTTCAGCACTGTCTGGGTTGTATCTGCCAGTTCCCTCAACATCTGGGTCGTCCCTCAATAAGCTATGTAAGTCCTCTTCAGCGTAGTCTAAATTCCTTGGGGCCCCATTTCTTCTTCCTAACCCTCTGAATCCGCTCATGCGTAGATTTCTCAACGGAATATTGCTTTCAGTTCTCCAGTCATGCGCTTTCGGTTTGATCCCTTGTTCAAGCTCCTGGATATCTAAATCCAGATCGGAGTCCGAATCAGCTTGAGGTGGAATTTGATCGCCCTGATGATAATATGAGCCCGAAGACATGCCTCATTGTATTTTATCGTTTGATCTCTATAATCTCCTAGGTGATGTTATAAAGCTTGACCGCATAAAATCGGTTAATCATTTAAGCAAATGCAGTTGCGGTGTGTCATATCTTTCACGGCAGCATCTAGTATGTCTAGTATGGCTGCTACTGTATTTTAAATAAACCAAAACATGTTCAACACATTTCATAAGGTATAAGAAGGATTGTGAATATAATTTACTGGTAAATTTTAAATCATAGTTGAAAA
With B5, the “% decrease =/− SE TP1” value is given as 23 ± 5% and the “% decrease =/− SE TP2” value was found to be 16 ± 4%.
